Test results as given in article PMC7093966.

Target: FITC-Aβ42 (UniProt P05067)
Assay: solid-phase fluorescence binding assay (FITC-peptide on coated plate); black 96-well plates coated with 50 μg/mL rat-tail collagen-I or 10% BSA; 1 μM FITC-Aβ42 in RPMI with or without 200 μg/mL HDL (total, apoE-depleted or apoE-enriched) or BSA; 24 h at 37 °C, 5% CO2; PBS washes; excitation 490 nm, emission 520 nm

FITC-Aβ42, sequence (P05067 672-713): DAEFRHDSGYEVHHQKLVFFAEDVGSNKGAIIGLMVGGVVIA
High density lipoprotein (HDL), density 1.063-1.21 g/mL, sequence (P02649 whole entry, looked up): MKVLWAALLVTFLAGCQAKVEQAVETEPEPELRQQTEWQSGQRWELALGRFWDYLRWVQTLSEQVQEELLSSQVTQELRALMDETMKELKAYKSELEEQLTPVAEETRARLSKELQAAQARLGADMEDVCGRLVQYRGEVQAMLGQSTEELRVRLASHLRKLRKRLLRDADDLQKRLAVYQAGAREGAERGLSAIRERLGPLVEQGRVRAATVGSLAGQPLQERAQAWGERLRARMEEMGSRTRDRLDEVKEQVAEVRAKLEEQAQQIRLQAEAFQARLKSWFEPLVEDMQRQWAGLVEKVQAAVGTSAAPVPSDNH
High density lipoprotein (HDL), density 1.063-1.21 g/mL, sequence (P02652 whole entry, looked up): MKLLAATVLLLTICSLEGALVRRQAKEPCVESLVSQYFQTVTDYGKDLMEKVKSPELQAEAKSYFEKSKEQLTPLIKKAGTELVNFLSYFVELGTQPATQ
High density lipoprotein (HDL), density 1.063-1.21 g/mL, sequence (P02647 whole entry, looked up): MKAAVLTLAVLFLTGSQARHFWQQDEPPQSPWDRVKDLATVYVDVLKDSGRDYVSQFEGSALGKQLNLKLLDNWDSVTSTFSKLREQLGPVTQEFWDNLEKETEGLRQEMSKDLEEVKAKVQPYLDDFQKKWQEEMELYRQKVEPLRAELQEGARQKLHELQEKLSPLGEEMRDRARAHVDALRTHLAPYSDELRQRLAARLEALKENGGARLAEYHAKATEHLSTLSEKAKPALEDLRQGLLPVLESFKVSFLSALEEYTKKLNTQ

fold reduction of Aβ42 binding to BSA: 11.8 fold
fold reduction of Aβ42 binding to collagen-I: 7 fold
Substance: High density lipoprotein (HDL), density 1.063-1.21 g/mL (from UniProt P02647 19-267; P02652 19-100; P02649 19-317) (complex)
